Changes are numbered by the printed parent chain. Names may count otherwise. Each block holds one binder with its values, some of them ahead of it.
What was measured:
[1] = target: T1, human TfR overexpressed on CHO cells (human, UniProt P02786 1-760); assay: flow cytometry, first of two columns 'Binding to human TfR1 EC50 (M)' (second column: ND); paragraph 156 calls it the capacity to compete for binding on human TfR1, competitor not named
T1 construct: construct is TfR followed by an HA tag and IRES-GFP; also called hTfR; human transferrin receptor

[2] = target: T2, cynomolgus TfR overexpressed on CHO cells (cynomolgus monkey, UniProt Q5RDH6 1-760 (Pongo abelii entry)); assay: flow cytometry, first of two columns 'Binding to cyno TfR1 EC50 (M)' (second column: ND); paragraph 156 calls it the capacity to compete for binding on cynomolgus monkey TfR1, competitor not named
T2 construct: construct is TfR followed by an HA tag and IRES-GFP; also called cynomolgus monkey TfR1; NHP TfR
T2 chain: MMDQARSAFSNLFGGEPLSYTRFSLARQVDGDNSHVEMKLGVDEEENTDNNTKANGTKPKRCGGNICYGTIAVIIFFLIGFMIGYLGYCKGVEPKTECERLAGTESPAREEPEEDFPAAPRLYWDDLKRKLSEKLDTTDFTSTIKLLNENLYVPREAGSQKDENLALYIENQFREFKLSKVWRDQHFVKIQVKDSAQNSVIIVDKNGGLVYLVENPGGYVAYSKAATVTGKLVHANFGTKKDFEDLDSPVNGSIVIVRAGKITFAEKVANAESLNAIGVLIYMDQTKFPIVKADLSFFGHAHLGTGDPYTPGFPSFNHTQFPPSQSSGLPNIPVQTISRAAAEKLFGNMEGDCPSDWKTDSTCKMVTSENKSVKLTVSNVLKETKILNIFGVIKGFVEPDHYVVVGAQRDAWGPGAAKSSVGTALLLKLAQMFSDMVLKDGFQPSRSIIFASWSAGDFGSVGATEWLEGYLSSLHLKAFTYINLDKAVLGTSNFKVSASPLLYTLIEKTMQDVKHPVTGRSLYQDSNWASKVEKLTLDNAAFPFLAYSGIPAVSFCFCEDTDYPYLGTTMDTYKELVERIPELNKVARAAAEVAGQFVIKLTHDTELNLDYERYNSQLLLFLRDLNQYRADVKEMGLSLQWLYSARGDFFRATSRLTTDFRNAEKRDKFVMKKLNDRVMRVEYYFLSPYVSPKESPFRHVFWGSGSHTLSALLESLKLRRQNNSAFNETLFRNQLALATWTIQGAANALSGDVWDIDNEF

[3] = target: T1, human TfR overexpressed on CHO cells; assay: flow cytometry, second of two columns 'Binding to human TfR1 EC50 (M)' (first column: ND); paragraph 156 calls it the capacity to compete for binding on human TfR1, competitor not named
[4] = target: T2, cynomolgus TfR overexpressed on CHO …; assay: flow cytometry, second of two columns 'Binding to cyno TfR1 EC50 (M)' (first column: ND); paragraph 156 calls it the capacity to compete for binding on cynomolgus monkey TfR1, competitor not named
[5] = target: T3, recombinant human TfR (2474-TR, R&D Systems), biotinylated (human, UniProt P02786 89-760, biotinylated with EZ-Link NHS-PEG4-Biotinylation Kit); assay: SPR (Biacore), biotinylated human TfR captured on an SA chip, VHH injected, 1:1 dissociation fit, pH 5.5
T3 construct: Bought protein; also called immobilized recombinant human TfR; biotinylated human TfR
Experimental: (§1) E. coli TG1 bacteria were transformed with those plasmids and expressions induced. Crude extracts were prepared and analyzed for binding by flow cytometry on human TfR overexpressing cells. […] Next, off rates of these selected variants were determined on recombinant human TfR by surface plasmon resonance (Biacore, Marlborough, Massachusetts, United States). Biotinylated human TfR was captured on a streptavidin-coated SA sensor chip (Cytiva). Increasing concentrations of nanobodies were sequentially injected in a single cycle at a flow rate of 30 μL/min. The dissociation was monitored for around 20 min. A reference flow was used as a control for non-specific binding and refractive index changes. Several buffer blanks were used for double referencing. Off rates were derived after fitting the experimental data to the 1:1 binding model with the Biacore Evaluation Software.
(§2) Surface Plasmon Resonance (SPR) was used to measure the interaction between VHHs and human or cynomolgus TfR receptor. Human TfR (2474-TR, R&D Systems) and cynomolgus TfR (90253-C07H, Sino Biological) were biotinylated with the EZ-Link NHS-PEG4-Biotinylation Kit (ThermoFischer Scientific) according to the manufacturer instructions. The binding experiments were performed at 25° C. on a Biacore T200 instrument (Cytiva, Uppsala, Sweden) in HBS-EP+ buffer (10 mM HEPES, 150 mM NaCl, 3 mM EDTA and 0.05% v/v Surfactant P20). Biotinylated human TfR and cynomolgus TfR were captured on a SA sensor chip (Cytiva) at a density of around 250 RU. Increasing concentrations of VHHs were sequentially injected in one single cycle at a flow rate of 30 μl/min. The dissociation was monitored for 20 min. […] A reference flow was used as a control for non-specific binding and refractive index changes. Several buffer blanks were used for double referencing. Binding affinities (KD) and kinetic rate constants (kₒₙ, koff) were derived after fitting the experimental data to the 1:1 binding model with the Biacore T200 Evaluation Software 3.1 using the single cycle kinetic procedure.

[6] = target: T3, recombinant human TfR (2474-TR, R&D …); assay: SPR (Biacore), biotinylated human TfR captured on an SA chip, VHH injected, 1:1 dissociation fit, pH 7.4
Experimental: as §1, §2

[7] = target: T3, recombinant human TfR (2474-TR, R&D …); assay: SPR (Biacore), ratio of the off rates on human TfR at the two pH values; the printed number equals kd at pH 5.5 divided by kd at pH 7.4
Experimental: as §1, §2

[8] = target: T1, human TfR overexpressed on CHO cells; assay: flow cytometry, column 'Binding to human TfR1 EC50 (M)'; paragraph 156 calls it the capacity to compete for binding on human TfR1, competitor not named
[9] = target: T2, cynomolgus TfR overexpressed on CHO …; assay: flow cytometry, column 'Binding to cyno TfR1 EC50 (M)'; paragraph 156 calls it the capacity to compete for binding on cynomolgus monkey TfR1, competitor not named

T3 sequence (P02786 89-760 limits assumed): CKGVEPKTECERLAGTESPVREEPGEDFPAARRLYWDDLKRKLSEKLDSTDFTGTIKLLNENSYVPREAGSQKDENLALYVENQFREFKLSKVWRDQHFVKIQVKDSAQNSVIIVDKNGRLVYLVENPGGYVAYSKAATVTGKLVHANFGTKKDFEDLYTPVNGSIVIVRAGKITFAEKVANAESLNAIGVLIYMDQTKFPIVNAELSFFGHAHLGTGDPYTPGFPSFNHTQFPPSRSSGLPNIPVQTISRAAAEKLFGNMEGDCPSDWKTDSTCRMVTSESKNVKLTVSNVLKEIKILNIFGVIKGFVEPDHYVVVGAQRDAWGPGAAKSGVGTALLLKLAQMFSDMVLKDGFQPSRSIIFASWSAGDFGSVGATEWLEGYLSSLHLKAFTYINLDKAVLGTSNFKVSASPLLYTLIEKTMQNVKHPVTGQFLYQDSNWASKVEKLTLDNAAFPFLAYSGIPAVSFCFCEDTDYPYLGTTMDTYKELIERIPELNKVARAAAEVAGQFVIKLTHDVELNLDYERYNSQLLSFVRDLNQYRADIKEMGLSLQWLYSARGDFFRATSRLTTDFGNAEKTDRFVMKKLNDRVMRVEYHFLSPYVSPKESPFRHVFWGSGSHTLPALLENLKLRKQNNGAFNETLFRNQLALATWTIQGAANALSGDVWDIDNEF

EC50 [1]: 290 nM | EC50 [2]: 120 nM
B3: BBB00533_h17 (VHH)
VHH: EVQLVESGGGLVQPGGSLRLSCTASGRTFNYAMGWFRQAPGKNREFVATIDWKQGSSYYADSVKGRFTISRDDAKNTVYLQMNSLRPEDTAVYYCAVGEGDYCSTYTCAAEVEYDYWGQGTLVTVSS

koff [5]: 0.0183 s⁻¹ | koff [6]: 0.00782 s⁻¹ | off-rate ratio kd pH5.5/kd pH7.4 [7]: 2.35
B5: BBB00736 (VHH)
VHH: EVQLVESGGGLVQAGGSLRLSCAASGSIFSINAMGWYRQAPGKQRELVAVITSGGSTIYADSVKGRFTISRDNAENTVYLQMNSLRPEDTAVYYCNAHVGLKVPTIQELSLGFGSWGQGTLVTVSS
notes: also called variant of BBB00515

koff [5]: 0.022 s⁻¹ | koff [6]: 0.00933 s⁻¹ | off-rate ratio kd pH5.5/kd pH7.4 [7]: 2.36
B10: BBB00763 (VHH)
VHH: B5 VHH with I106H
notes: also called histidine mutant of BBB00533

koff [5]: 0.0113 s⁻¹ | koff [6]: 0.00507 s⁻¹ | off-rate ratio kd pH5.5/kd pH7.4 [7]: 2.23
B12: BBB00767 (VHH)
VHH: B5 VHH with S110H
notes: Histidine mutant

koff [5]: 0.02 s⁻¹ | koff [6]: 0.00861 s⁻¹ | off-rate ratio kd pH5.5/kd pH7.4 [7]: 2.32
B14: BBB00737 (VHH)
VHH: B5 VHH with G26H
notes: Histidine mutant

koff [5]: 0.0245 s⁻¹ | koff [6]: 0.00727 s⁻¹ | off-rate ratio kd pH5.5/kd pH7.4 [7]: 3.37
B15: BBB00770 (VHH)
VHH: B5 VHH with F113H
notes: as for B10

koff [5]: 0.0223 s⁻¹ | koff [6]: 0.00761 s⁻¹ | off-rate ratio kd pH5.5/kd pH7.4 [7]: 2.93
B17: BBB00739 (VHH)
VHH: B5 VHH with I28H
notes: as for B10

koff [5]: 0.0151 s⁻¹ | koff [6]: 0.00551 s⁻¹ | off-rate ratio kd pH5.5/kd pH7.4 [7]: 2.74
B20: BBB00741 (VHH)
VHH: B5 VHH with S30H
notes: as for B10

koff [5]: 0.0206 s⁻¹ | koff [6]: 0.0102 s⁻¹ | off-rate ratio kd pH5.5/kd pH7.4 [7]: 2.02
B22: BBB00764 (VHH)
VHH: B5 VHH with Q107H
notes: Histidine mutant

Continued, binder first:

B1: BBB00533_h14 (VHH)
VHH: B3 VHH with Q54D
EC50 [1]: 340 nM | EC50 [2]: 180 nM

B2: BBB00533_h13 (VHH)
VHH: B3 VHH with Q54D, E99Q
EC50 [1]: 560 nM | EC50 [2]: 240 nM

B4: BBB00533_h10 (VHH)
VHH: B3 VHH with Q54D, A60L, D73N, E99D
notes: The sheet prints R72K and D82N (IMGT) against BBB00533_h01
EC50 [3]: 110 nM | EC50 [4]: 14 nM

B6: BBB00515_h1 (VHH)
VHH: B5 VHH with A14P
EC50 [8]: 120 nM | EC50 [9]: 26 nM

B7: BBB00756 (VHH)
VHH: B5 VHH with V99H
notes: as for B10
koff [5]: 0.019 s⁻¹ | koff [6]: 0.00735 s⁻¹ | off-rate ratio kd pH5.5/kd pH7.4 [7]: 2.58

B8: BBB00771 (VHH)
VHH: B5 VHH with G114H
notes: Histidine mutant
koff [5]: 0.0183 s⁻¹ | koff [6]: 0.011 s⁻¹ | off-rate ratio kd pH5.5/kd pH7.4 [7]: 1.67

B9: BBB00515_h02 (VHH)
VHH: B5 VHH with A14P, E75K
notes: The sheet prints E84K (IMGT) against BBB00515_h01; also called BBB00515_h2
EC50 [8]: 67 nM | EC50 [9]: 23 nM

B11: BBB00515_h04 (VHH)
VHH: B5 VHH with E1D, A14P, E75K
notes: The sheet prints E1D and E84K (IMGT) against BBB00515_h01; also called BBB00515_h4
EC50 [8]: 60 nM | EC50 [9]: 22 nM

B13: BBB00745 (VHH)
VHH: B5 VHH with M34H
notes: Histidine mutant
koff [5]: 0.0161 s⁻¹ | koff [6]: 0.00773 s⁻¹ | off-rate ratio kd pH5.5/kd pH7.4 [7]: 2.08

B16: BBB00772 (VHH)
VHH: B5 VHH with S115H
notes: Histidine mutant
koff [5]: 0.0141 s⁻¹ | koff [6]: 0.00737 s⁻¹ | off-rate ratio kd pH5.5/kd pH7.4 [7]: 1.92

B18: BBB00758 (VHH)
VHH: B5 VHH with L101H
notes: as for B10
koff [5]: 0.0657 s⁻¹ | koff [6]: 0.00908 s⁻¹ | off-rate ratio kd pH5.5/kd pH7.4 [7]: 7.24

B19: BBB00738 (VHH)
VHH: B5 VHH with S27H
notes: Histidine mutant
koff [5]: 0.0171 s⁻¹ | koff [6]: 0.00918 s⁻¹ | off-rate ratio kd pH5.5/kd pH7.4 [7]: 1.86

B21: BBB00740 (VHH)
VHH: B5 VHH with F29H
notes: Histidine mutant
koff [5]: 0.0221 s⁻¹ | koff [6]: 0.00954 s⁻¹ | off-rate ratio kd pH5.5/kd pH7.4 [7]: 2.32

Source: patent US20260274981A1 (VIB VZW, published 2026)
